# Laboratory results reported in article PMC4636433.
# B1: 41-mer AAVS1 RBS DNA (dsDNA)
# DNA 1: TGGCGGCGGTTGGGGCTCGGCGCTCGCTCGCTCGCTGGGCG
# DNA 2: CGCCCAGCGAGCGAGCGAGCGCCGAGCCCCAACCGCCGCCA
# Molecular target: Rep68 wt (Adeno-associated virus 2 (AAV2), UniProt P03132 1-536)
# Test: fluorescence anisotropy
# Sequence of Rep68 wt (P03132 whole entry): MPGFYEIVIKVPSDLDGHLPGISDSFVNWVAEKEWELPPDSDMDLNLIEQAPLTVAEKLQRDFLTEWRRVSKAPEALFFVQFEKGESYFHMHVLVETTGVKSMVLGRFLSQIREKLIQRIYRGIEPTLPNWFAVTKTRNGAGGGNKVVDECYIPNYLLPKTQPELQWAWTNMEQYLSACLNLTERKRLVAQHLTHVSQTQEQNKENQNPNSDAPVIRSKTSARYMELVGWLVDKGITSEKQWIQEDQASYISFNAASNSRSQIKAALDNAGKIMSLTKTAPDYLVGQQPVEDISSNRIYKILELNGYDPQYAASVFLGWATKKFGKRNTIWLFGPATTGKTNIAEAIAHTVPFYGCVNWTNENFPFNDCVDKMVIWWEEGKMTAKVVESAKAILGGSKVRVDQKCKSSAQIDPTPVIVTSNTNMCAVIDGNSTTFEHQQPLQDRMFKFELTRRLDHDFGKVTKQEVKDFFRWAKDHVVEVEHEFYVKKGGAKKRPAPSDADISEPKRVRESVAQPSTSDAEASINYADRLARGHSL
binder,measurement,value
B1,binding result,binds
